Data set [1] relates to metastatic colorectal cancer. The settings on record: unconjugated antibody, early phase II trial; cited from earlier work.
The target of a further data set is T1, FAP (Homo sapiens, UniProt Q12884).
T1 sequence (Q12884 1-760): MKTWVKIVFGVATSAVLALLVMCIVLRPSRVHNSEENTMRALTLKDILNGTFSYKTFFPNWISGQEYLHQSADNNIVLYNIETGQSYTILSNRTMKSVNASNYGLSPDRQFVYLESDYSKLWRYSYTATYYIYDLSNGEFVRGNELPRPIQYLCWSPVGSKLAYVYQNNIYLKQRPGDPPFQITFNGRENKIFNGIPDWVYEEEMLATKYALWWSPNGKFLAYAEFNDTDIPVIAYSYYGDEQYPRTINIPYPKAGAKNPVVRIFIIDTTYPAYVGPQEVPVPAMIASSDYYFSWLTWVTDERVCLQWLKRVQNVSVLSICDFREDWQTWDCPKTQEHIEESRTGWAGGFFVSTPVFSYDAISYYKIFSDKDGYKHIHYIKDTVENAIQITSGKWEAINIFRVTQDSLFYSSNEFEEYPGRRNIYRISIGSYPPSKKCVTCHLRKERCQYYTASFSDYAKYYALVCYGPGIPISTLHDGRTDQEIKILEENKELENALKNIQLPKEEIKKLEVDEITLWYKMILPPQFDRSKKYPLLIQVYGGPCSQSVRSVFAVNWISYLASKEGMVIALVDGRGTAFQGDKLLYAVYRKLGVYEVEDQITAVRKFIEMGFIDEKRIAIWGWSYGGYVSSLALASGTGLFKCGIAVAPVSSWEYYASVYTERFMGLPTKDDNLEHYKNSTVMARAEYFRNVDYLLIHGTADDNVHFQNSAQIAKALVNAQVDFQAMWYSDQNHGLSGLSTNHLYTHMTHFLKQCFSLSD
Particulars: cited from earlier work.

For data set [2] the following is noted: human, in vivo; cited from earlier work.
In another data set the target is T2, captured FAP (sFAP) (Homo sapiens, UniProt Q12884).
T2 sequence (Q12884 1-760): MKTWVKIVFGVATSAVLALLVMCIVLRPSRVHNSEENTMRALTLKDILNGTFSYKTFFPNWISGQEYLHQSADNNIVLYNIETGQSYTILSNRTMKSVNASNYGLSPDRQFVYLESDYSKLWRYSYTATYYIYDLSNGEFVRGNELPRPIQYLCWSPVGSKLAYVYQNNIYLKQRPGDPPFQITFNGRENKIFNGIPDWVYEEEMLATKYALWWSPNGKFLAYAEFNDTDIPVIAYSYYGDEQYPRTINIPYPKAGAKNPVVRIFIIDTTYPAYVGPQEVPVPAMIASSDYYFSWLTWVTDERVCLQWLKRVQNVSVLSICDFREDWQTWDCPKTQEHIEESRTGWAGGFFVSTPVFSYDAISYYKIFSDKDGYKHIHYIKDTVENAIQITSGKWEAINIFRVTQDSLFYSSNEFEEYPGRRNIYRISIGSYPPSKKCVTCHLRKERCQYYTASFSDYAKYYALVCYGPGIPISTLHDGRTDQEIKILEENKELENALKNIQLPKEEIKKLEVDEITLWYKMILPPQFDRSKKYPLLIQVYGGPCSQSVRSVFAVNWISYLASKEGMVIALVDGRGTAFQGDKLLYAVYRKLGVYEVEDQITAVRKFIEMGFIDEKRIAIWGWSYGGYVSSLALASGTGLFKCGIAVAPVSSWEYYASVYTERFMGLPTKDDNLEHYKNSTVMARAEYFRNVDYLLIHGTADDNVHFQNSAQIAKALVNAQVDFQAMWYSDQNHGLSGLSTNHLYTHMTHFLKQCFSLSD
Put plainly: Capture ELISA, FAP captured via his-tag with coated anti-His antibody. The class given is binding. The settings on record: non-linear regression. The procedure:
(§1) ELISA assays were performed with varying antibody concentrations to validate the binding of the exemplary antibodies of the present invention to FAP and to be able to determine their half maximal effective concentration (EC50). For the exemplary recombinant human NI-206.82C2, NI-206.59B4, NI-206.22F7, NI-206.27E8, NI-206.12G4 and NI-206.17A6 antibodies, 96-well microplates (Costar, Corning, USA) were coated with FAP, with a mixture of the 3 peptides or with BSA (Sigma-Aldrich, Buchs, Switzerland) diluted to a concentration of 5 μg/ml in carbonate ELISA coating buffer (15 mM Na2CO3, 35 mM NaHCO3, pH 9.4) for the direct ELISA. For the capture ELISA, the microplates were coated with mouse anti-His monoclonal antibody (Clontech) diluted to a concentration of 3 μg/ml in PBS, the plates were then blocked, FAP or BSA were diluted to a concentration of 2 μg/ml in PBS and added to the plates to be captured. The binding efficiency of the antibodies was then tested. The exemplary NI-206.82C2 antibody specifically and strongly binds to the captured FAP and less efficiently to the directly coated FAP. The exemplary NI-206.59B4 antibody specifically, strongly and similarly binds to the captured FAP and to the directly coated FAP.
(§2) The EC50 values were estimated by a non-linear regression using GraphPad Prism (San Diego, USA) software. […] The binding of NI-206.12G4 towards sFAP was not tested.
(In general: ELISA stands for enzyme-linked immunosorbent assay.)

The target in data set [3] is T3, directly coated FAP (FAP) (Homo sapiens, UniProt Q12884).
T3 sequence (Q12884 1-760): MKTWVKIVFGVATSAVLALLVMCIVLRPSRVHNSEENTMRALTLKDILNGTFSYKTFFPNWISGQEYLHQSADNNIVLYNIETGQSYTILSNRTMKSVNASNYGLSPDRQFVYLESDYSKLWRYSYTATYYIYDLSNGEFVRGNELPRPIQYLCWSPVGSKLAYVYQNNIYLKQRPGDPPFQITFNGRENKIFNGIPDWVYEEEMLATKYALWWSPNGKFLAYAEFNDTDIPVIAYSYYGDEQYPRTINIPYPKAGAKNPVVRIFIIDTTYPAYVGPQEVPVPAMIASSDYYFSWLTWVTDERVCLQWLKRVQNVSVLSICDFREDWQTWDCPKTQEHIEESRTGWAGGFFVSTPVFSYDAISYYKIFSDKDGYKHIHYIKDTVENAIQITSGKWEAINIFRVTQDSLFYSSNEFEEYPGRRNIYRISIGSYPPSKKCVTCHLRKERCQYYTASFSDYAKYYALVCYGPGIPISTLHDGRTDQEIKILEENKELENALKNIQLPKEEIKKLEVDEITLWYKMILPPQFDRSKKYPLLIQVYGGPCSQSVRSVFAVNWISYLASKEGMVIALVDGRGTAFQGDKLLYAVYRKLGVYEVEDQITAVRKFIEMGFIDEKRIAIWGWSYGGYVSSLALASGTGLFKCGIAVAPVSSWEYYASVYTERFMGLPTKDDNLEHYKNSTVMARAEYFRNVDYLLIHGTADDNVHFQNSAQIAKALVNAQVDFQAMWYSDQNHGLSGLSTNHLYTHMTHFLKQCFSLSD
Briefly: Direct ELISA, FAP directly coated. The settings on record: non-linear regression. The class given is binding. The protocol: as §1, §2

On to “Sibrotuzumab: a humanized version of the F19 antibody that specifically binds to human FAP”, for which the “efficacy in inhibiting tumor progression” value in data set [1] is on record as “lack of efficacy”. Besides, the “inhibition of FAP” value in the data set with FAP is listed as “not inhibitory”. The “patients with a change in pharmacokinetics and reduced tumor uptake” value in data set [2] was 4 of 26.

B1: NI-206.22F7: recombinant human-derived monoclonal anti-FAP antibody, variable regions in FIG. 1 (antibody, V domains shown)
VH: EVQLVETGGGVVQPGRSLRLSCAASGFSFSTHGMYWVRQPPGKGLEWVAVISYDGSDKKYADSVKGRFTISRDNSKNTVYLEMSSVRAEDTALYYCFCRRDAFDLWGQGTMVTVSS
VL: SYVLTQPPSVSVSPGQTARITCSGDALPKKYAYWYQQKSGQAPVLVIYEDTKRPSGIPERFSGSSSGTMATLTISGAQVEDEADYYCYSTDSSGNYWVFGGGTEVTVL
Regarding B1, the “EC50, binding to captured FAP (sFAP)” value with captured FAP (sFAP) is reported as “did not show any binding”. Moreover, in data set [3], the “EC50, binding to directly coated FAP (FAP)” value is recorded as “did not show any binding”.

The record behind these values is patent US20170369592A1, “NOVEL ANTI-FIBROBLAST ACTIVATION PROTEIN (FAP) ANTIBODIES AND USES DERIVED THEREOF” (Mabimmune Diagnostics AG, priority 2015, published 2017).
